Assay results published in article PMC8683598.

What was measured:
[1] = biological target: FLAG-T. castaneum methoprene-tolerant (T. castaneum); assay: native MS; purified methoprene-bound complex exchanged into 200 mM ammonium acetate pH 7.4, nano-ESI, Synapt G2Si
[2] = biological target: FLAG-T. castaneum methoprene-tolerant (T. castaneum); assay: SEC-MALS; purified complex loaded at ~5 mg/ml, Superdex 200 10/300, 50 mM Tris, 350 mM NaCl, 10 uM methoprene, 2 mM MgCl2, 100 uM TCEP, pH 8.0; peak fractions checked by SDS-PAGE

His6-Tribolium castaneum taiman (TcTAI) (domain or fragment)
stoichiometry N [1]: 1
stoichiometry N [2]: 1
